Measured values reported in publication doi:10.1101/2021.12.14.472599.
Read-outs that look alike come from different tables or passages of the source.

B1: gRNA TF-A + target ssRNA MZ-1185 (dsRNA)
RNA 1: AUAAUGGUUUCUUAGACGUCGUUUUAGAGCUGUGUUGUUUCG
RNA 2: CGAAACAACACAGCUCUAAAACGACGUCUAAGAAACCAUUAU
modifications: 5'-phosphate on guide
B2: RNA/DNA heteroduplex (TF-A/MZ-949) (DNA:RNA)
RNA: B1 RNA 1
DNA: CGAAACAACACAGCTCTAAAACGACGTCTAAGAAACCATTAT
B3: gRNA TF-A + target ssDNA MZ-949 (DNA:RNA)
RNA: B1 RNA 1
DNA: B2 DNA
modifications: 5'-phosphate on guide
B4: dsRNA (TF-A/MZ-1185) (dsRNA)
RNA 1: B1 RNA 1
RNA 2: B1 RNA 2
B5: gRNA TF-A + nsp-ssDNA MZ-589 (mixed)
RNA: B1 RNA 1
DNA: GGAGATGGGAAGTCATTAGATGTAGAACTTGAATGGCAACGG
modifications: 5'-phosphate on guide
B6: gDNA TK-49 + target ssRNA MZ-1185 (DNA:RNA)
DNA: ATAATGGTTTCTTAGACGTCGTTTTAGAGCTGTGTTGTTTCG
RNA: B1 RNA 2
modifications: 5'-phosphate on guide
B7: gDNA TK-49 + target ssDNA MZ-949 (dsDNA)
DNA 1: B6 DNA
DNA 2: B2 DNA
modifications: 5'-phosphate on guide
B8: dsDNA (TK-49/MZ-949) (dsDNA)
DNA 1: B6 DNA
DNA 2: B2 DNA

How the values were obtained:
[1] = target: TwinStrep-CcSir2 protein (TwinStrep-tag fused to the N-terminus of His6-CcSir2) (Caballeronia cordobensis); test: co-elution from a Heparin column with SDS-PAGE densitometry
GsSir2;GsAgo [2] = target: T1, GsSir2;GsAgo (Geobacter sulfurreducens Caccavo (ATCC …, UniProt Q74DF6;Q74DF5 1-587;1-473, |)); test: EMSA
GsSir2;GsAgo [3] = target: T1, GsSir2;GsAgo; test: EMSA; remark: listed apart in the source
GsSir2;GsAgo [4] = target: T1, GsSir2;GsAgo; test: EMSA; remark: listed apart in the source
GsSir2(D230A);GsAgo [5] = target: T2, GsSir2(D230A);GsAgo (Geobacter sulfurreducens Caccavo (ATCC …, UniProt Q74DF6;Q74DF5 1-587;1-473, D230A|)); test: EMSA
GsSir2(D230A);GsAgo [6] = target: T2, GsSir2(D230A);GsAgo; test: EMSA; remark: listed apart in the source
GsSir2APAZ;GsAgo = GsSir2APAZ;GsAgo (Geobacter sulfurreducens Caccavo (ATCC …, UniProt Q74DF6;Q74DF5 1-587;1-473, R440E;R442E;R517E;R525E;R528E;R531E|)); test: EMSA

| Molecule | Kd (GsSir2;GsAgo [2]) [nM] | Kd (GsSir2;GsAgo [4]) [nM] | further results |
| --- | --- | --- | --- |
| CcAgo protein (short pAgo of the CcSir2/Ago system) (natural protein) |  |  | stoichiometry N [1]: 1 Sir2:Ago |
| AUAAUGGUUUCUUAGACGUCGUUUUAGAGCUGUGUUGUUUCG (ssRNA) [ssRNA (TF-A)] | 0.042 ± 0.015 |  |  |
| B1 |  | 0.205 ± 0.058 | Kd (GsSir2;GsAgo [3]): 0.567 ± 0.112 nM |
| B2 | 4.31 ± 0.37 |  |  |
| B3 |  | 0.02 ± 0.008 | Kd (GsSir2;GsAgo [3]): 0.079 ± 0.007 nM; Kd (GsSir2(D230A);GsAgo [5]): 0.14 ± 0.057 nM; Kd (GsSir2(D230A);GsAgo [6]): 0.038 ± 0.013 nM; binding result (GsSir2APAZ;GsAgo): no binding |
| B4 | 73 ± 29 |  |  |
| B5 |  | 0.42 ± 0.231 |  |
| ATAATGGTTTCTTAGACGTCGTTTTAGAGCTGTGTTGTTTCG (ssDNA) [ssDNA (TK-49)] | 0.033 ± 0.016 |  |  |
| B6 |  | 0.252 ± 0.114 |  |
| ATAATGGTTTCTTAGACGTCGTTTTAGAGCTGTGTTGTTTCG (ssDNA, circularised by CircLigase II) [circular ssDNA (TK-49)] | 0.072 ± 0.018 |  |  |
| B7 |  | 0.022 ± 0.005 |  |
| B8 | 51 ± 20 |  |  |
